1 molecule from publication PMC4976356, “Structural insight into β-Clamp and its interaction with DNA Ligase in Helicobacter pylori” (Scientific Reports, 2016) can be followed below.

Series [1] has as its target T1, NAD-dependent DNA ligase from Helicobacter pylori 26695 (Helicobacter pylori 26695, UniProt O25336 1-656).
T1 construct: Cloned and expressed in a similar manner to the β-clamp (NcoI/XhoI, pET 28(b)); by the printed forward primer Met-Gly would stand before Met1, and the reverse primer has no stop codon, so a C-terminal vector His tag is likely (surmised); also called HpDNA ligase; Hpligase; source: E. coli BL21, purified (Ni Sepharose, HiLoad G200 gel filtration)
The following applies: both partners purified.

Series [2] concerns the molecule itself. The series can be described thus: SEC; gel filtration on HiLoad G200 16/60; 30 mM Tris pH 7.5, 150 mM NaCl, 5% glycerol, 30 mM arginine, 6 mM βMe.

B1: β-clamp from Helicobacter pylori 26695 (natural protein, UniProt O25242 1-374, looked up)
chain: MKISVSKNDLENALRYLQAFLDKKDASSIASHIHLEVIKEKLFLKASDSDIGLKSYIFTQSSDKEGVGTINGKKFLDIISCLKDSNIILETKDDSLAIKQNKSSFKLPMFDADEFPEFPVIDPKVSIEVNAPFLVDAFKKIAPVIEQTSHKRELAGILMQFDQKHQTLSVVGTDTKRLSYTQLEKISIHSTEEDISCILPKRALLEILKLFYENFSFKSDGMLAVIENEMHTFFTKLIDGNYPDYQKILPKEYISSFTLGKEEFKESIKLCSSLSSTIKLTLEKNNALFESLDSEHSETAKTSVEIEKGLDIEKAFHLGVNAKFFLEALNALGTTQFVLRCNEPSSPFLIQESLDEKQSHLNAKISTLMMPITL
notes: DNA polymerase III beta subunit (β-clamp) of Helicobacter pylori 26695; domains I-III span Met1 to Leu374; Cloned between NcoI and XhoI of pET 28(b); the reverse primer has no stop codon, so a C-terminal vector His tag is likely (surmised); By the printed forward primer the ATG of the NcoI site is out of frame with the gene's own ATG; also called Hpβ-clamp; H. pylori β-clamp; source: E. coli …
Broadly, the Kd is the equilibrium constant for the complex coming apart. For orientation: stoichiometry N means the number of molecules, sites or subunits per partner or assembly. Turning to B1, in series [1], the Kd was found to be 1250 nM. Moreover, the “stoichiometry N” value in series [2] amounted to 2.
